Assay: soluble on expression in E. coli; label from the status in PepcDB or PDB records

| Sequence | soluble on expression in E. coli |
| --- | --- |
| MSEKEIWEKVLEIAQEKLSAVSYSTFLKDTELYTIKDGEAIVLSSIPFNANWLNQQYAEIIQAILFDVVGYEVKPHFITTEELANYSNNETATPKETTKPSTETTEDNHVLGREQFNAHNTFDTFVIGPGNRFPHAASLAVAEAPAKAYNPLFIYGGVGLGKTHLMHAIGHHVLDNNPDAKVIYTSSEKFTNEFIKSIRDNEGEAFRERYRNIDVLLIDDIQFIQNKVQTQEEFFYTFNELHQNNKQIVISSDRPPKEIAQLEDRLRSRFEWGLIVDITPPDYETRMAILQKKIEEEKLDIPPEALNYIANQIQSNIRELEGALTRLLAYSQLLGKPITTELTAEALKDIIQAPKSKKITIQDIQKIVGQYYNVRIEDFSAKKRTKSIAYPRQIAMYLSRELTDFSLPKIGEEFGGRDHTTVIHAHEKISKDLKEDPIFKQEVENLEKEIRNVLEHHHHHH | soluble |
| MKLYVLIIAIILSIGTARTQNIDSLLMQREDTTQFIRSDSLVLQFLEYSNIPITDNNKVKLIKSGREKFEDLFEAIRGAKHHIHLEYFNFRNDSIANALFDLLGEKVKEGVKVRAMFDAFGNWSNNKPLKKRHLKAIREKGIEIVKFDPFKFPYINHAAHRDHRKIAVIDGKIGYTGGMNIADYYINGLPKIGTWRDMHIRIEGDAVNILQEIFLDIWNKTTKQNIVGEEYFPNHPERADSCNTVISIVDRTPKRNSRMLSHTYAMSIYAAQHDVRIVNPYFVPTSSIRKALKRALNRGTKVEIMISSKSDIPFTPDASLYAVQKLMKKGAMIYLYNGGFHHSKIMMVDDLFCTVGTANLNSRSLRYDYETNAFIFDKDITQQLNDVFEADMLHCTRLTPEMWKQKSAWKKFKCWFANLFTPFL | not soluble |
| MPPVCGRRCSRTGEIRGYSGSIVRRWKRVETRDGPRFRSSLAPHEAALLKNLAGAMIGLLDDRDSSSPSDELEEITGIKTGHAQRPGDPTLRRLLPDFYRPDDLDDDDPTAVDGSESFNAALRSLHEPEIIDAKRVAAQQLLDTVPDNGGRLELTESDANAWIAAVNDLRLALGVMLEIGPRGPERLPGNHPLAAHFNVYQWLTVLQEYLVLVLMGSR | not soluble |
| MGSDKIHHHHHHMSEIWRQCKGERHIRPLQGRLVRLVESQEQVATLQLVDTLEEQALLEELLESSKPPVPADAEPLHYLLKTPFRYPPLRWGSRFGRRHEPSLFYAALKLETAMAESAYYRCVLWSGMVVPPPSGRILSEHASFEAGWKVERGIRLQAPPFSDHEAALTDIADYRAPQELGSAMRSAGVQAFEYRSARCPERGCNVALFTPAAFTEKRPRNLTPWLCETTAGYVAFKPAHVPGSPKIFSWELFLVDGKLPHPA | not soluble |
| MSLEWQDLAQLPVSIFKDYVTDAQDAEKPFIWTEVFLREINRSNQEIILHIWPMTKTVILGMLDRELPHLELAKKEIISRGYEPVVRNFGGLAVVADEGILNFSLVIPDVFERKLSISDGYLIMVDFIRSIFSDFYQPIEHFEVETSYCPGKFDLSINGKKFAGLAQRRIKNGIAVSIYLSVCGDQKGRSQMISDFYKIGLGDTGSPIAYPNVDPEIMANLSDLLDCPMTVEDVIDRMLISLKQVGFNDRLLMIRPDLVAEFDRFQAKSMANKGMVSRDEEGHHHHHH | soluble |
| MSEAKWLSLLGLAARARQLLTGEEQVVKAVQNGQVTLVILSSDAGIHTKKKLLDKCGSYQIPVKVVGNRQMLGRAIGKHERVVIGVKDAGFSRKLAALIDE | soluble |
| MSGALKENSGKPSEVEYTHFKDLQALEMERGRLYETIVVTWDDSMVGNAAPIGVLCTGDDTVTLYLYQGTRTVENVLNNGRFTVNVTLDPLIFTDSTLGDLEEDMFSHYRDFLHLRGADAFFTAEVVSVKKLVKRDRFGESELHVVKARAGDVMRAESFRMALNRGIYAVIESLIAYTRAEFSDPLVLRERIAEMNRVARKVGGPREKEAMRRIIQALESKIS | not soluble |
| SLLCGPLRLSESGETWSEVWAAIPMSDPQVLHLQGGSQDGRLPRTIPLPSCKLSVPDPEERLDSGHVWKLQWAKQSWYLSASSAELQQQWLETLSTAAH | soluble |
| MGNQRHHYNDYEDVRMLKWVARNDKSLGPFGIITWQLYVEAYNCPYSVQSLCGRMRRQIVPNIDYYSRHLKSSDLISLERRFGSRLGAETRKYIRNLAVKTVKIVQVVASRPVEKNSEIEVQKVASLELQAAPTAPTTSAAQLGKTKSPGARTQRIERNDELSRDVFESSCASTIVEPEPPQEEPPQRSHNWKTEMRKIAGQAAQAINDLIRQTVENNDFNKKMFAELENQQNLDHLYGKMFDDPNKADWIMIDVKKFTENHLRMQYFRKIREELHKRFTNQHIIRAVFCFFQFFEYYVTVCVDESTDNYILLMNKVLEMSIKLLPLYIVHC | not soluble |
| MSRPPPPRAASGAPLRPATVLGTMEMGRRMDASASAASVRAFLERGHSELDTAFMYCDGQSENILGGLGLGLGSGDCTVKIATKANPWEGKSLKPDSIRSQLETSLKRLQCPRVDLFYLHAPDHSTPVEETLCACHQLHQEGKFVELGLSNYASWEVAEICTLCKSNGWILPTVYQGMYNATTRQVEAELLPCLRHFGLRFYAYNPLAGGLLTGKYKYEDKDGKQPVGRFFGNNWAETYRNRFWKEHHFEAIALVEKALQTTYGTNAPRMTSAALRWMYHHSQLQGTRGDAVILGMSSLEQLEQNLAATEEGPLEPAVVEAFDQAWNMVAHECPNYFR | soluble |
| MEFKNTKKDRLSDLENRFENANKHETNKHEKEDRKKAHTLYISEKVMNSVEEYLNEFGAFRENKSVFVQDAIIFYLEYKKKEMKQMLLDKASKL | not soluble |
| MGSDKIHHHHHHMPNQAWSYQMLHLDLAWLNQLYSEFQEQGLDLHIPQHKPLIIKDEFLYDAFTEMNETLFDAQKLIFEKEQSLLHCLIHLLLPHFILEEIQKPQYLYKDFLNLIDVISSSEGFISLEELAQRVGLSRYAIIRLFKANVGLTPHAFQINLKINQAREQLKKGVPLAELAVNLGFSDQSHFHKAFKAHTGVTPRQFQLAAAQ | not soluble |
| MVGIQVQEVMTDKYAKIDISAPLSEAIGIIEKEDPDLILVFDDNVYKGVLTQDLIIRSHLKWDPTKAKVRDIYKPAPVVKPTDDLSHAAKLLLETDLRSLPVGENKAEIIGVISDIALLERVVAEEFGKKKVEEFMTKDVITLTPDDTVAKALAVMRDHGISRIPIVNEEGKLEGLVTLHDLILRFIKPRFKAQTGELVGEKIPPFSMKLREAMIRGVITILPTATVREAVATMKDNDIDGLVVVDEGNKVVGILTVKDLLLPISRMVEKEAKFYLQLGGDASALSDFTRERIINDIKKFVDGYSDLLGNEGIIYLYIRRFNEKFRGVHLYQARMRIVTDKGVFIARGETWGAIQAVHDAIRAIERQLLQKAELERDIRYAKRFIEKLELWR | soluble |
| MGSDKIHHHHHHMNILIVYGTTEGQTGKIAARTATHLRERGHQVELRDSAALASDLKLGHFDAFVIAASVHQEHHQETVTNFVFAHHEALSTKPSALISVSLSAALGDQKKDAQKYVDRFVSVTDWQPSMTLLLGGALRFNKYDYFQEQFVKFVVMKSGDPSPERDHEFTDWNALANFADRFLETAG | not soluble |
| MSGVWVFKNGVIRLVENPNQSGSDTQNRRKVMVYLPTGEVVSSYSTLEQILQSLGWERYFGGGDTDLLQFHKRSSIDLISLPRDFTKFNSVYMYDIVVKNPNYFHVRDSH | not soluble |
| MNQLKGIHHVTAITSSAEKNYEFFTHVLGMRLVKKTVNQDDIQTYHLFFADDKGSAGTDMTFFDFPGVPKGVHGTNEISKTSFRVPTDAALAYWVKRFDRLEVEHTGIKEQFGKKTLSFVDFDDQHYQLISDELDKGIESGTPWQNGPVPLEYAITGLGPVFIRIANFSFFKEVLEKVLLFKEIAQEGEFYLFEVNKGGNGASVIVEHNTVLPEAQQGFGTVHHAAFRVEDRAVLEEWIERISSVGLPSSGYVNRHFFESLYARVAPQILFEFATDGPGFMGDESYETLGEKLSLPPFLEPKREEIEKLVRPIDTVRSTKEFIKE | not soluble |
| MGSDKIHHHHHHMKSKIYILLLFLIFLSACANTRHSESDKNVLTVYSPYQSNLIRPILNEFEKQEHVKIEIKHGSTQVLLSNLHNEDFSERGDVFMGGVLSETIDHPEDFVPYQDTSVTQQLEDYRSNNKYVTSFLLMPTVIVVNSDLQGDIKIRGYQDLLQPILKGKIAYSNPNTTTTGYQHMRAIYSMHHRVSDVHQFQNHAMQLSKTSKVIEDVAKGKYYAGLSYEQDARTWKNKGYPVSIVYPIEGTMLNVDGIALVKNAHPHPKRKKLVQYLTSRSVQQRLVAEFDAKSIRKDVSEQSDQSIENLKNIPLIPKSKLPDIPHHKFLEMIQ | not soluble |
| MNKIKILSITLEKRIISKNENDHSHQVIGQETEMTSKLEIRHKQRQDEIINAARRCFRRCGFHAASMSQIASEAQLSVGQIYRYFANKDAIIEEMVRRIIDFRIAQMDIDARTDHFPEVLALRKSLNEDDDALMLEVAAEATRNPRVMAMLEEADARMFANGCAHMKRMHPHLSDEHIRCCVEVFATMMEGTVYRRLTPQKSDPQHLQEIYQDIVSMLINK | not soluble |
| MLNSAPSETEKSETEGSETKESNLVIEDEEERKECTSVKKTEGHFTRQVDQVTKYDKDYIWSLVHSQLREGGLSQAASDLVMSYFEERYAYALEHIRFARTAEAIAEYVFNGVLSEWTKQLR | not soluble |
| RNVDAALFGMISLYAQTKVIDTIIYGSDAGSKASIITAHPDEIAGRIIRELDRSATILPGKGAYSGRETSVVLCTVRKSEFARLKRIIHETDENAFVMVTETTEVIGLGFKDFSDAVQ | not soluble |
| MDNIVTESIKFESEPNYLQRGYHLFDISFLNGLTCVITNKIETDEIHLKIKLDWDERDIEKITGFIQLSYDGHQLKPIDSNFDKRGGICTIIVPKFLYEYRWSFSFNLKLHRDPAKPPQISNDLKSQVSYDTMFEPSRKHDAVLLIGEKKLHVNKAFLSYHSDYFSDLFAEKVDEKNGIPIENVTYENFGLLMSVIYPEAVFSNHQNAEVLLELGNRFKIPAVMRHVENQIVGDTTKFPNKRLISLAEKYGLQKLLAMEIQKMKSFDQAKKFKGSDDYLQLSDATKAKIFDRLIELS | not soluble |
| MSLRKMKRFYIASEEEIKTGKTTDIYFLRTRKILETKNIRKKVLADVTTTSLPENWKWGVLVGVEEVAKLLEGIPVNVYAMPEGTIFHPYEPVLQIEGDYADFGIYETALLGMLSQASGIATAALRIKIAAKFKPVYSFGIRHMHPAIAPMIDRAAFIGGCDGVSGVLGAEMMGEKAVGTMPHALIITVGDQVKAWKYFDEVIEKEVPRIALVDTFYDEKIEAVMAAEALGKKLSAVRLDTPSSRRGNFRRIIEEVKWELKIRGYDWVKILISGGLDEEKIKEIVDVADAFGVGSAIASAKPIDFALDIVEVEGKPIAKRGKLSGRKQVYRCENGHYHVVPADKKLERCPVCNAKVEPLLKPIIENGEIVVEFPKARDIREYVLEQAKKFNLEIEGHHHHHH | not soluble |
| AHHHHHHGSKLDDSFLTLFPEEDKVYEVLLSTKSNFTPIGVRRQGRVLKFRIFEGRSFRDLEECNYAIIQVVDDTELLAGLAYNLDVKFDVTQGIKVPIRRIEGYPWVEGEVKCRIVKVKDSIGESIAKDCTLTPIYIGIEKRVPRPISRADNVLLELAVLGTRLIVKKKRGLQIKDVAQKIEELYELYRKLGGKSEIAGKIMDILRKHYL | soluble |
| MSDVPDDANAGCPGTGSAGAGKASGCAGCPNQGSCATGQGPPPDADVPKIQDRFSRIKHKILILSGKGGVGKSTLTSNLARALASDPSKQVAILDVDICGPSQPRMMGVEDEEVHNSADGWTPVGIQPNLTLMSIAFLLGDKNDAVIWRGARKNGMIKQFLKDVDWGEVDYLLIDTPPGTSDEHISLVQFLLQAGPLDGALIVSTPQEVSLLDVRKEVSFCVKTKVPILGVVENMARFVCPNCAHTTLLFPTSTGGAEQMCKDSNLELLAQLPLEPALAKALDNGEDFFETNPDSTLAKSFLDLAEKVKAKLV | not soluble |

From the DeepSol protein solubility set
